Drawing on PMC3538848, this text covers stoichiometry N, Kd and MIC, hemagglutination inhibition (HAI) for 3 substances.

In assay [1] the target is A/Solomon Islands/3/2006 (H1N1) hemagglutinin ectodomain (influenza A virus A/Solomon Islands/3/2006 (H1N1)). Description: negative-stain EM, single-particle 3D reconstruction.
Assay [2] addresses A/Perth/16/2009 (H3N2) hemagglutinin ectodomain (influenza A virus A/Perth/16/2009 (H3N2)). The description is as above.
Assay [3] has as its target A/Panama/2007/1999 (H3N2) hemagglutinin ectodomain (influenza A virus A/Panama/2007/1999 (H3N2)). Description: BLI.
In assay [4] the target is A/Perth/16/2009 (H3N2) hemagglutinin ectodomain (influenza A virus A/Perth/16/2009 (H3N2)). Description: BLI.
The target in assay [5] is A/Brisbane/10/2007 (H3N2) hemagglutinin ectodomain (influenza A virus A/Brisbane/10/2007 (H3N2)). Description: BLI.
For assay [6], the target named is A/Panama/2007/1999 (H3N2) hemagglutinin ectodomain (influenza A virus A/Panama/2007/1999 (H3N2)). Description: ITC.
Assay [7] concerns the target A/Perth/16/2009 (H3N2) hemagglutinin ectodomain (influenza A virus A/Perth/16/2009 (H3N2)). Description: ITC.
Assay [8] addresses A/Brisbane/10/2007 (H3N2) hemagglutinin ectodomain (influenza A virus A/Brisbane/10/2007 (H3N2)). Description: ITC.
Assay [9] addresses A/Texas/36/1991 (H1N1) hemagglutinin ectodomain (influenza A virus A/Texas/36/1991 (H1N1)).

Turning to C05 Fab (Lys-C digestion of IgG), the stoichiometry N in [1] and in [2] was 3 each time.

On to “C05 Fab (recombinant, for binding studies)”, for which the Kd in [3] is 720 nM; in assay [4], 18 nM; in [5] it was > 5000 nM; in [6], 225 nM; in [7] it was 26 nM; in assay [8], 10000 nM.

Turning to C05 IgG (antibody), the MIC, hemagglutination inhibition (HAI) in assay [9] was > 100 µg/mL.
